Results as given in patent US20150344570A1 (published 2015).

T1: FcγRIIb extracellular domain with C-terminal His tag (human, UniProt P31994 43-217)
T1 construct: extracellular domain; also called FcgRIIb; 2b
T1 sequence (looked up): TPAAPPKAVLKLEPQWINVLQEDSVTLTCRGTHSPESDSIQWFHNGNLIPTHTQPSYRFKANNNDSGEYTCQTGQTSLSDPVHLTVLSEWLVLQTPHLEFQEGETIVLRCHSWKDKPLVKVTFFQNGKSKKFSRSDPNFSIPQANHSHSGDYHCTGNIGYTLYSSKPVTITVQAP

B1: GpH7-B3 variant S337_08L/GpL16-k0 (antibody, human IgG1, kappa)
heavy: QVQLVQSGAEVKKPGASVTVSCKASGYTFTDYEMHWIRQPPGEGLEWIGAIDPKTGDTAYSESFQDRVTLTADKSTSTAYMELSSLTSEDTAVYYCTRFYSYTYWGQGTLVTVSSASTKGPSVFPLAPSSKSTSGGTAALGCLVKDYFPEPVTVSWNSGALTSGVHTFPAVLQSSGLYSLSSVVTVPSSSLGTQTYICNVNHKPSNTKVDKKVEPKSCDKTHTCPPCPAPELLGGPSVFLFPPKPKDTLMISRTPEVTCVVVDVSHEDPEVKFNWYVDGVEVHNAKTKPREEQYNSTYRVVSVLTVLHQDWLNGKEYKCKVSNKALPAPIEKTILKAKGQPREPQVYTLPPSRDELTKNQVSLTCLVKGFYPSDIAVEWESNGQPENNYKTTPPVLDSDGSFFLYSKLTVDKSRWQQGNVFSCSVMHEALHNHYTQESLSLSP
light: DIVMTQSPLSLPVTPGEPASISCQASESLVHSNRNTYLHWYLQKPGQSPQLLIYKVSNRFSGVPDRFSGSGSGTDFTLKISRVEAEDVGVYYCSQNTHVPPTFGQGTKVEIERTVAAPSVFIFPPSDEQLKSGTASVVCLLNNFYPREAKVQWKVDNALQSGNSQESVTEQDSKDSTYSLSSTLTLSKADYEKHKVYACEVTHQGLSSPVTKSFNRGEC
notes: also called Ho Ab S337_08L
B2: GpH7-A5/GpH7-B3 variant G237_02A/GpL16-k0 (antibody, human IgG1, kappa)
heavy 1: not shown
heavy 2: not shown
light: B1 light
notes: also called He Ab G237_02A
B3: GpH7-A5/GpH7-B3 variant K326_20W/GpL16-k0 (antibody, human IgG1, kappa)
heavy 1: not shown
heavy 2: not shown
light: B1 light
notes: also called He Ab K326_20W
B4: GpH7-A5/GpH7-B3 variant A330_01G/GpL16-k0 (antibody, human IgG1, kappa)
heavy 1: not shown
heavy 2: not shown
light: B1 light
notes: also called He Ab A330_01G
B5: GpH7-A5/GpH7-B3 variant G237_18N/GpL16-k0 (antibody, human IgG1, kappa)
heavy 1: not shown
heavy 2: not shown
light: B1 light
notes: also called He Ab G237_18N
B6: GpH7-B3 variant T335_07I/GpL16-k0 (antibody, human IgG1, kappa)
heavy: not shown
light: B1 light
notes: also called Ho Ab T335_07I
B7: GpH7-A5/GpH7-B3 variant G237_04F/GpL16-k0 (antibody, human IgG1, kappa)
heavy 1: not shown
heavy 2: not shown
light: B1 light
notes: also called He Ab G237_04F
B8: GpH7-A5/GpH7-B3 variant I332_14T/GpL16-k0 (antibody, human IgG1, kappa)
heavy 1: not shown
heavy 2: not shown
light: B1 light
notes: also called He Ab I332_14T
B9: GpH7-A5/GpH7-B3 variant L234_09D/GpL16-k0 (antibody, human IgG1, kappa)
heavy 1: not shown
heavy 2: not shown
light: B1 light
notes: also called He Ab L234_09D
B10: GpH7-A5/GpH7-B3 variant I336_08L/GpL16-k0 (antibody, human IgG1, kappa)
heavy 1: not shown
heavy 2: not shown
light: B1 light
notes: also called He Ab I336_08L
B11: GpH7-A5/GpH7-B3 variant G237_08L/GpL16-k0 (antibody, human IgG1, kappa)
heavy 1: not shown
heavy 2: not shown
light: B1 light
notes: also called He Ab G237_08L
B12: GpH7-A5/GpH7-B3 variant L234_20W/GpL16-k0 (antibody, human IgG1, kappa)
heavy 1: not shown
heavy 2: not shown
light: B1 light
notes: also called He Ab L234_20W
B13: GpH7-A5/GpH7-B3 variant A327_07I/GpL16-k0 (antibody, human IgG1, kappa)
heavy 1: not shown
heavy 2: not shown
light: B1 light
notes: also called He Ab A327_07I
B14: GpH7-B3 variant T335_16H/GpL16-k0 (antibody, human IgG1, kappa)
heavy: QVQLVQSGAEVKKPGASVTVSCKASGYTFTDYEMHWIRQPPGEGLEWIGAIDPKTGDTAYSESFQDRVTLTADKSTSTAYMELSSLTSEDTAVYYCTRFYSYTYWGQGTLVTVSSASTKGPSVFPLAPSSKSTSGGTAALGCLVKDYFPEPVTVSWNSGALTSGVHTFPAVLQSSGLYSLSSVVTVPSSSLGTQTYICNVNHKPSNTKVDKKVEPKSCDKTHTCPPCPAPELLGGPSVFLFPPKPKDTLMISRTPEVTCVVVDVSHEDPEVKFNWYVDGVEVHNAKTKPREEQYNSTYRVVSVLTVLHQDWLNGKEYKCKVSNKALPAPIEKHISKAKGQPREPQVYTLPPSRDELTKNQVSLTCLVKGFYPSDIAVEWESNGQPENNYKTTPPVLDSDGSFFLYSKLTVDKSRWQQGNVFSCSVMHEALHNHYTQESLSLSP
light: B1 light
notes: also called Ho Ab T335_16H
B15: GpH7-B3 variant Y296_20W/GpL16-k0 (antibody, human IgG1, kappa)
heavy: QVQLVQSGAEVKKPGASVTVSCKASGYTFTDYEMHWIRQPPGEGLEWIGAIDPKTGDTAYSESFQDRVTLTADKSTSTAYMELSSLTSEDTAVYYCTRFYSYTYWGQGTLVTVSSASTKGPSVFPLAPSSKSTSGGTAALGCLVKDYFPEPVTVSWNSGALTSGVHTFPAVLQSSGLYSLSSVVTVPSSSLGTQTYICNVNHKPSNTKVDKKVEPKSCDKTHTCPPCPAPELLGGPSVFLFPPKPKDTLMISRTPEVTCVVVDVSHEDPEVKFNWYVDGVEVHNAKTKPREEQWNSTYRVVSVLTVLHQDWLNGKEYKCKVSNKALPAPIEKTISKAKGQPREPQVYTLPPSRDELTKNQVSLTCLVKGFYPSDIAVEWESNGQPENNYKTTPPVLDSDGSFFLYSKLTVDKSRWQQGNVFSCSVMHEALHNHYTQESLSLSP
light: B1 light
notes: also called Ho Ab Y296_20W
B16: GpH7-A5/GpH7-B3 variant H268_15Y/GpL16-k0 (antibody, human IgG1, kappa)
heavy 1: not shown
heavy 2: not shown
light: B1 light
notes: also called He Ab H268_15Y
B17: GpH7-B3 variant T335_18N/GpL16-k0 (antibody, human IgG1, kappa)
heavy: not shown
light: B1 light
notes: also called Ho Ab T335_18N
B18: GpH7-B3 variant T335_13S/GpL16-k0 (antibody, human IgG1, kappa)
heavy: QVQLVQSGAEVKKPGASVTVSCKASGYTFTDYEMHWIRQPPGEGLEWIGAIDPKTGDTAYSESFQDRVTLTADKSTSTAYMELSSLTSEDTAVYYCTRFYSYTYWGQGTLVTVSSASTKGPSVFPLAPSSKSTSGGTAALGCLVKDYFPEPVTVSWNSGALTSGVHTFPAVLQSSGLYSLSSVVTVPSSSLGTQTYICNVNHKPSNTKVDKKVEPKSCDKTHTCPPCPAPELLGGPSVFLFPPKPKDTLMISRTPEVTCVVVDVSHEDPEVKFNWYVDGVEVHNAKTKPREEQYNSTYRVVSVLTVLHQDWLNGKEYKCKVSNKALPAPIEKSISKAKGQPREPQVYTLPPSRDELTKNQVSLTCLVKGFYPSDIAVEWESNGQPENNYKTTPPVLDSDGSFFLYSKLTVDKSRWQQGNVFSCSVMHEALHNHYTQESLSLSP
light: B1 light
notes: also called Ho Ab T335_13S
B19: GpH7-B3 variant T335_10E/GpL16-k0 (antibody, human IgG1, kappa)
heavy: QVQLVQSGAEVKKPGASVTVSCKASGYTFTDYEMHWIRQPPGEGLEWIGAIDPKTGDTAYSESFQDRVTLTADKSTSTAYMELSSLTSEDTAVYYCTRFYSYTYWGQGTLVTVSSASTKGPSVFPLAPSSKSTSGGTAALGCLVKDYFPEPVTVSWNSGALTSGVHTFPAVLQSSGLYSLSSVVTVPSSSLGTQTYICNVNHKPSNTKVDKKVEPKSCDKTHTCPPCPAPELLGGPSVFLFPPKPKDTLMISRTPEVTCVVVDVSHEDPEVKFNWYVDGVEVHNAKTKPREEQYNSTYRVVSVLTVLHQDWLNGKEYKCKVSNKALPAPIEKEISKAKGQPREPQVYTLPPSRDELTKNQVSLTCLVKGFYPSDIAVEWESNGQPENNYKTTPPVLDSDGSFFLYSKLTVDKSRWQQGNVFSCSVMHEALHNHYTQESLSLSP
light: B1 light
notes: also called Ho Ab T335_10E
B20: GpH7-A5/GpH7-B3 variant H268_05P/GpL16-k0 (antibody, human IgG1, kappa)
heavy 1: not shown
heavy 2: not shown
light: B1 light
notes: also called He Ab H268_05P
B21: GpH7-A5/GpH7-B3 variant L235_04F/GpL16-k0 (antibody, human IgG1, kappa)
heavy 1: not shown
heavy 2: not shown
light: B1 light
notes: also called He Ab L235_04F
B22: GpH7-B3 variant S337_15Y/GpL16-k0 (antibody, human IgG1, kappa)
heavy: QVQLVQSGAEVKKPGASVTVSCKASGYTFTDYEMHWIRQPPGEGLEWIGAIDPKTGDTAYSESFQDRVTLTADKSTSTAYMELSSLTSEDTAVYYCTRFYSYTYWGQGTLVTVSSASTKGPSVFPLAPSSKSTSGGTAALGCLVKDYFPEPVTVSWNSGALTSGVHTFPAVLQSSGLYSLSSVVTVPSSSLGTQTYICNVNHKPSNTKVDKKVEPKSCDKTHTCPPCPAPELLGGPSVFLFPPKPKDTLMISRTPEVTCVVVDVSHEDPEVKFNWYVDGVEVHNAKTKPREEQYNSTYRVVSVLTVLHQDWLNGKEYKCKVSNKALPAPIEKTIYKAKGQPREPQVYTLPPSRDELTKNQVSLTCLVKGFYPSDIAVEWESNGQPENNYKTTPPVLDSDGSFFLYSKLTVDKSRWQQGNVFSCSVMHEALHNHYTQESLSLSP
light: B1 light
notes: also called Ho Ab S337_15Y
B23: GpH7-A5/GpH7-B3 variant K326_07I/GpL16-k0 (antibody, human IgG1, kappa)
heavy 1: not shown
heavy 2: not shown
light: B1 light
notes: also called He Ab K326_07I
B24: GpH7-A5/GpH7-B3 variant K326_08L/GpL16-k0 (antibody, human IgG1, kappa)
heavy 1: not shown
heavy 2: not shown
light: B1 light
notes: also called He Ab K326_08L
B25: GpH7-A5/GpH7-B3 variant G237_20W/GpL16-k0 (antibody, human IgG1, kappa)
heavy 1: not shown
heavy 2: not shown
light: B1 light
notes: also called He Ab G237_20W
B26: GpH7-A5/GpH7-B3 variant I336_06M/GpL16-k0 (antibody, human IgG1, kappa)
heavy 1: not shown
heavy 2: not shown
light: B1 light
notes: also called He Ab I336_06M
B27: GpH7-B3 variant V266_06M/GpL16-k0 (antibody, human IgG1, kappa)
heavy: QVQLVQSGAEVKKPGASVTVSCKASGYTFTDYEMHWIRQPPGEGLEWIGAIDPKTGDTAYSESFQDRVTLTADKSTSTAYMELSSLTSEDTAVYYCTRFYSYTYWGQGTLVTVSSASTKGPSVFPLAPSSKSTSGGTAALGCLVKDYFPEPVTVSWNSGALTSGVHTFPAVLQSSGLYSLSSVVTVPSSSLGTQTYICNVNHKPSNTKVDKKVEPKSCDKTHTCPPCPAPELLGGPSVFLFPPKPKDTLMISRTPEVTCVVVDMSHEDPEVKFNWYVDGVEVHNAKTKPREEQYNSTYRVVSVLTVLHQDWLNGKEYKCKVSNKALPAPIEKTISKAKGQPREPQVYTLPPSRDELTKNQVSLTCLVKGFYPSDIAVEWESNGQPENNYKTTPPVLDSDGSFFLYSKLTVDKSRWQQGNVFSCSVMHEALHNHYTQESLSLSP
light: B1 light
notes: also called Ho Ab V266_06M
B28: GpH7-A5/GpH7-B3 variant G237_13S/GpL16-k0 (antibody, human IgG1, kappa)
heavy 1: not shown
heavy 2: not shown
light: B1 light
notes: also called He Ab G237_13S
B29: GpH7-A5/GpH7-B3 variant A330_05P/GpL16-k0 (antibody, human IgG1, kappa)
heavy 1: not shown
heavy 2: not shown
light: B1 light
notes: also called He Ab A330_05P
B30: GpH7-A5/GpH7-B3 variant G237_10E/GpL16-k0 (antibody, human IgG1, kappa)
heavy 1: not shown
heavy 2: not shown
light: B1 light
notes: also called He Ab G237_10E
B31: GpH7-A5/GpH7-B3 variant G237_09D/GpL16-k0 (antibody, human IgG1, kappa)
heavy 1: not shown
heavy 2: not shown
light: B1 light
notes: also called He Ab G237_09D
B32: GpH7-A5/GpH7-B3 variant G237_06M/GpL16-k0 (antibody, human IgG1, kappa)
heavy 1: not shown
heavy 2: not shown
light: B1 light
notes: also called He Ab G237_06M
B33: GpH7-B3 variant T335_19Q/GpL16-k0 (antibody, human IgG1, kappa)
heavy: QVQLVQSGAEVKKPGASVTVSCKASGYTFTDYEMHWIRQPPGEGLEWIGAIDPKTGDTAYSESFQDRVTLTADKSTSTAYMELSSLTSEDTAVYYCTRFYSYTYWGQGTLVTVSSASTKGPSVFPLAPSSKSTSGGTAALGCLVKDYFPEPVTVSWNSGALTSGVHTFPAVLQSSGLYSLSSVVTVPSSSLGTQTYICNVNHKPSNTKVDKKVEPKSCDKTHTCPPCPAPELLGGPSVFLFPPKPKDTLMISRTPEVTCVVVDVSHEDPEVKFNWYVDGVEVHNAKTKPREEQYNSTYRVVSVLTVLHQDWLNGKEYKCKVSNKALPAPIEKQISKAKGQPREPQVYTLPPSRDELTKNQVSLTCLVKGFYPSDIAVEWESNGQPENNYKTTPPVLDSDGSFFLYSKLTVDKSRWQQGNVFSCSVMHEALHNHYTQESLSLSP
light: B1 light
notes: also called Ho Ab T335_19Q
B34: GpH7-B3 variant S337_16H/GpL16-k0 (antibody, human IgG1, kappa)
heavy: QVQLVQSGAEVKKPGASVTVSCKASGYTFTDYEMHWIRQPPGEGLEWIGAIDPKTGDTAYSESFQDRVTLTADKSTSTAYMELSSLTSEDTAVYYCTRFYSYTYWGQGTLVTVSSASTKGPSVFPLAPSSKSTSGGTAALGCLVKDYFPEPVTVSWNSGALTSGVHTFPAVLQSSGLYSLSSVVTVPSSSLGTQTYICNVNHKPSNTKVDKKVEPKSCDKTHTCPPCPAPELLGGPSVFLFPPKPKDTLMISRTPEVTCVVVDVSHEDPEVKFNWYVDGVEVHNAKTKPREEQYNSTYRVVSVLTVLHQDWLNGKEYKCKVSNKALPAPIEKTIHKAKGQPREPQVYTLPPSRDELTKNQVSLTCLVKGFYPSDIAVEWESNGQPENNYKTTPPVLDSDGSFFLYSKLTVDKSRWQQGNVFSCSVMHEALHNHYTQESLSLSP
light: B1 light
notes: also called Ho Ab S337_16H
B35: GpH7-A5/GpH7-B3 variant G237_19Q/GpL16-k0 (antibody, human IgG1, kappa)
heavy 1: not shown
heavy 2: not shown
light: B1 light
notes: also called He Ab G237_19Q
B36: GpH7-B3 variant T335_20W/GpL16-k0 (antibody, human IgG1, kappa)
heavy: not shown
light: B1 light
notes: also called Ho Ab T335_20W
B37: GpH7-A5/GpH7-B3 variant A327_18N/GpL16-k0 (antibody, human IgG1, kappa)
heavy 1: not shown
heavy 2: not shown
light: B1 light
notes: also called He Ab A327_18N
B38: GpH7-B3 variant S337_20W/GpL16-k0 (antibody, human IgG1, kappa)
heavy: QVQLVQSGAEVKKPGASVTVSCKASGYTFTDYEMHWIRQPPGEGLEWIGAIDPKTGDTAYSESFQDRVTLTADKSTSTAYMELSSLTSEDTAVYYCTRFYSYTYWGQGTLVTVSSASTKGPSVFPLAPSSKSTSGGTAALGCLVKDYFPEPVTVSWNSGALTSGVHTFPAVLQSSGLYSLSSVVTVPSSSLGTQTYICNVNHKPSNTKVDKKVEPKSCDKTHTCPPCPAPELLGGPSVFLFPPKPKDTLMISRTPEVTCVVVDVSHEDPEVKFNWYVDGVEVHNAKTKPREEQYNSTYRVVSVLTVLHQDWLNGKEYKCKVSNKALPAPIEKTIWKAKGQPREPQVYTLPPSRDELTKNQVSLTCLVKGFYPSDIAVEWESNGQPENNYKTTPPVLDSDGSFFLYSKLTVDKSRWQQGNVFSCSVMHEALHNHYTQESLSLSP
light: B1 light
notes: also called Ho Ab S337_20W
B39: GpH7-A5/GpH7-B3 variant G237_15Y/GpL16-k0 (antibody, human IgG1, kappa)
heavy 1: not shown
heavy 2: not shown
light: B1 light
notes: also called He Ab G237_15Y
B40: GpH7-A5/GpH7-B3 variant L234_10E/GpL16-k0 (antibody, human IgG1, kappa)
heavy 1: not shown
heavy 2: not shown
light: B1 light
notes: also called He Ab L234_10E
B41: GpH7-A5/GpH7-B3 variant I332_02A/GpL16-k0 (antibody, human IgG1, kappa)
heavy 1: not shown
heavy 2: not shown
light: B1 light
notes: also called He Ab I332_02A
B42: GpH7-B3 variant T335_15Y/GpL16-k0 (antibody, human IgG1, kappa)
heavy: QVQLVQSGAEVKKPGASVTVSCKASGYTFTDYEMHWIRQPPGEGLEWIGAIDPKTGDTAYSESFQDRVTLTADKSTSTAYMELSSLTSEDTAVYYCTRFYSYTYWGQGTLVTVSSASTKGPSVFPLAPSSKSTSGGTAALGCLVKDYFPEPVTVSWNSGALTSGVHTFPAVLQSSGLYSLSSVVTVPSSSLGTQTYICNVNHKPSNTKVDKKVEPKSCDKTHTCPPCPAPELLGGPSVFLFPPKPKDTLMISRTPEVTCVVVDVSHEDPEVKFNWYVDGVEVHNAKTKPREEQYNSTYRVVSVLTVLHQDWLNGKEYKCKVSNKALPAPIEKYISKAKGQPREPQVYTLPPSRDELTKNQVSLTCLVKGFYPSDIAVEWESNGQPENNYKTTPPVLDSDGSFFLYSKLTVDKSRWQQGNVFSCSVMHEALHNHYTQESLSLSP
light: B1 light
notes: also called Ho Ab T335_15Y
B43: GpH7-A5/GpH7-B3 variant H268_03V/GpL16-k0 (antibody, human IgG1, kappa)
heavy 1: not shown
heavy 2: not shown
light: B1 light
notes: also called He Ab H268_03V
B44: GpH7-B3 variant S337_18N/GpL16-k0 (antibody, human IgG1, kappa)
heavy: not shown
light: B1 light
notes: also called Ho Ab S337_18N

Target: T1, FcγRIIb extracellular domain with …
Experiment: SPR (Biacore), relative binding
Protocol: Analysis of interaction between objective antibody and the FcγR was carried out using Biacore T100 (GE Healthcare). HBS-EP+ (GE Healthcare) was used as the running buffer, and the measurement temperature was set to 25° C. Chips produced by immobilizing the antigen peptide by the amine coupling method to a Series S Sencor Chip CM5 (GE Healthcare), or alternatively, chips produced by allowing preliminarily biotinylated antigen peptides to interact with and immobilize onto a Series S Sensor Chip SA (certified) (GE Healthcare) were used. Antibodies of interest were captured onto an antigen peptide-immobilized chip, and allowed to interact to each FcγR diluted with running buffer. To regenerate and repeatedly use the chip, the antibodies captured on the chip were washed off by reacting 10 mM glycine-HCl, pH 1.5.

Binder	Ho/Con_2b	He/Con_2b
B1	90.7 % of HoCon Ab GpH7-B3/GpL16-k0	
B2		124 % of HeCon Ab GpH7-A5/GpH7-B3/GpL16-k0
B3		148 % of HeCon Ab GpH7-A5/GpH7-B3/GpL16-k0
B4		104 % of HeCon Ab GpH7-A5/GpH7-B3/GpL16-k0
B5		180 % of HeCon Ab GpH7-A5/GpH7-B3/GpL16-k0
B6	104 % of HoCon Ab GpH7-B3/GpL16-k0	
B7		149 % of HeCon Ab GpH7-A5/GpH7-B3/GpL16-k0
B8		106 % of HeCon Ab GpH7-A5/GpH7-B3/GpL16-k0
B9		150 % of HeCon Ab GpH7-A5/GpH7-B3/GpL16-k0
B10		107 % of HeCon Ab GpH7-A5/GpH7-B3/GpL16-k0
B11		148 % of HeCon Ab GpH7-A5/GpH7-B3/GpL16-k0
B12		114 % of HeCon Ab GpH7-A5/GpH7-B3/GpL16-k0
B13		127 % of HeCon Ab GpH7-A5/GpH7-B3/GpL16-k0
B14	97.2 % of HoCon Ab GpH7-B3/GpL16-k0	
B15	103 % of HoCon Ab GpH7-B3/GpL16-k0	
B16		106 % of HeCon Ab GpH7-A5/GpH7-B3/GpL16-k0
B17	96.1 % of HoCon Ab GpH7-B3/GpL16-k0	
B18	95.2 % of HoCon Ab GpH7-B3/GpL16-k0	
B19	108 % of HoCon Ab GpH7-B3/GpL16-k0	
B20		116 % of HeCon Ab GpH7-A5/GpH7-B3/GpL16-k0
B21		118 % of HeCon Ab GpH7-A5/GpH7-B3/GpL16-k0
B22	93.4 % of HoCon Ab GpH7-B3/GpL16-k0	

Binder	Ho/Con_2b	He/Con_2b
B23		199 % of HeCon Ab GpH7-A5/GpH7-B3/GpL16-k0
B24		177 % of HeCon Ab GpH7-A5/GpH7-B3/GpL16-k0
B25		193 % of HeCon Ab GpH7-A5/GpH7-B3/GpL16-k0
B26		101 % of HeCon Ab GpH7-A5/GpH7-B3/GpL16-k0
B27	231 % of HoCon Ab GpH7-B3/GpL16-k0	
B28		111 % of HeCon Ab GpH7-A5/GpH7-B3/GpL16-k0
B29		137 % of HeCon Ab GpH7-A5/GpH7-B3/GpL16-k0
B30		114 % of HeCon Ab GpH7-A5/GpH7-B3/GpL16-k0
B31		223 % of HeCon Ab GpH7-A5/GpH7-B3/GpL16-k0
B32		130 % of HeCon Ab GpH7-A5/GpH7-B3/GpL16-k0
B33	97.3 % of HoCon Ab GpH7-B3/GpL16-k0	
B34	103 % of HoCon Ab GpH7-B3/GpL16-k0	
B35		108 % of HeCon Ab GpH7-A5/GpH7-B3/GpL16-k0
B36	94.4 % of HoCon Ab GpH7-B3/GpL16-k0	
B37		113 % of HeCon Ab GpH7-A5/GpH7-B3/GpL16-k0
B38	99.6 % of HoCon Ab GpH7-B3/GpL16-k0	
B39		152 % of HeCon Ab GpH7-A5/GpH7-B3/GpL16-k0
B40		118 % of HeCon Ab GpH7-A5/GpH7-B3/GpL16-k0
B41		103 % of HeCon Ab GpH7-A5/GpH7-B3/GpL16-k0
B42	104 % of HoCon Ab GpH7-B3/GpL16-k0	
B43		114 % of HeCon Ab GpH7-A5/GpH7-B3/GpL16-k0
B44	98 % of HoCon Ab GpH7-B3/GpL16-k0	
